For 1 substance, Kd results are on record in article PMC5954120.

For this assay, the target named is GST-Pmp23 (S. pneumoniae) (UniProt Q8DPY9). As to the kind of experiment: MST; 100 nM GST-Pmp23 labeled with NT-647, titrated with PBP2x (7 nM to 235 μM) or BSA (5 nM to 360 μM); 25 °C; 50 mM Tris-HCl, 150 mM NaCl, 10 mM MgCl2, 0.05% Tween-20; triplicates.
Sequence of UniProt Q8DPY9 (Q8DPY9 whole entry): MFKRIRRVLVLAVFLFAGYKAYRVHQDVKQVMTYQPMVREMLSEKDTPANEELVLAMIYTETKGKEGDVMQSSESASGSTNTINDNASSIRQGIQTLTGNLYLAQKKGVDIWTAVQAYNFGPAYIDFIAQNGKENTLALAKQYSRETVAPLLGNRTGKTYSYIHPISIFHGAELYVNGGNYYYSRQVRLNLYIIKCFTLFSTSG

Consider “extracellular domain of PBP2x (domain or fragment)”, for which the Kd (commonly the constant that tells how readily two partners part at equilibrium) was 9 µM.
